Measurements as given in US20160159928A1 (published 2016).
Residue numbers refer to the chain shown, from its start. Names may count otherwise.

B1: BLV1H12 IgG (antibody)
VH: QVQLRESGPSLVKPSQTLSLTCTASGFSLSDKAVGWVRQAPGKALEWLGSIDTGGNTGYNPGLKSRLSITKDNSKSQVSLSVSSVTTEDSATYYCTSVHQETKKYQSCPDGYRERSDCSNRPACGTSDCCRVSVFGNCLTTLPVSYSYTYNYEWHVDVWGQGLLVTVSSAS
light: not shown
notes: also called ULcowV
B2: VH1-24+CDR3-IL8 IgG (antibody)
VH: QVQLVQSGAEVKKPGASVKVSCKVSGYTLTELSMHWVRQAPGKGLEWMGGFDPEDGETIYAQKFQGRVTMTEDTSTDTAYMELSSLRSEDTAVYYCTSVHQETKKYQSPRSAKELRCQCIKTYSKPFHPKFIKELRVIESGPHCANTEIIVKLSDGRELCLDPKENWVQRVVEKFLKRAENSGSGSYTYNYEWHVDVWGQGLLVTVSSAS
light: not shown
notes: also called VH1-24 BLVCDR3IL8
B3: VH1-46+CDR3-IL8 IgG (antibody)
VH: QVQLVQSGAEVKKPGASVKVSCKASGYTFTSYYMHWVRQAPGQGLEWMGIINPSGGSTSYAQKFQGRVTMTRDTSTSTVYMELSSLRSEDTAVYYCTSVHQETKKYQSPRSAKELRCQCIKTYSKPFHPKFIKELRVIESGPHCANTEIIVKLSDGRELCLDPKENWVQRVVEKFLKRAENSGSGSYTYNYEWHVDVWGQGLLVTVSSAS
light: not shown
notes: also called VH1-46 BLVCDR3IL8
B4: VH4-34+CDR3-IL8 IgG (BLV1H12 light chain) (antibody)
VH: QVQLQQWGAGLLKPSETLSLTCAVYGGSFSGYYWSWIRQPPGKGLEWIGEINHSGSTNYNPSLKSRVTISVDTSKNQFSLKLSSVTAADTAVYYCTSVHQETKKYQSPRSAKELRCQCIKTYSKPFHPKFIKELRVIESGPHCANTEIIVKLSDGRELCLDPKENWVQRVVEKFLKRAENSGSGSYTYNYEWHVDVWGQGLLVTVSSAS
light: not shown
notes: also called VH4-34 BLVCDR3IL8
B5: VH4-34+CDR3-IL8_CDR2 Cow IgG (BLV1H12 light chain) (antibody)
VH: B4 VH with I48L, E50S, N52D, H53T, S54G, S56N, N58G
light: not shown
notes: also called VH4-34 + CDR3-IL8 + Cow CDR2
B6: VH4-34+CDR3-IL8_CDR2 E50S IgG (BLV1H12 light chain) (antibody)
VH: B4 VH with E50S
light: not shown
notes: also called VH4-34 + CDR3-IL8 + E50S
B7: BLV1H12+CDR3-IL8 heavy chain with BLV1H12 light chain (SEQ ID NO: 412) (antibody, human IgG1)
heavy: not shown
light: QAVLNQPSSVSGSLGQRVSITCSGSSSNVGNGYVSWYQLIPGSAPRTLIYGDTSRASGVPDRFSGSRSGNTATLTISSLQAEDEADYFCASAEDSSSNAVFGSGTTLTVLGQPKSPPSVTLFPPSTEELNGNKATLVCLISDFYPGSVTVVWKADGSTITRNVETTRASKQSNSKYAASSYLSLTSSDWKSKGSYSCEVTHEGSTVTKTVKPSECS
B8: VH4-34+CDR3-IL8_CDR1 Cow with light chain V1-51 (antibody, human IgG1, lambda)
heavy: not shown
light: QSVLTQPPSVSAAPGQKVTISCSGSSSNIGNNYVSWYQQLPGTAPKLLIYDNNKRPSGIPDRFSGSKSGTSATLGITGLQTGDEADYYCASAEDSSSNAVFGSGTTLTVLGQPKAAPSVTLFPPSSEELQANKATLVCLISDFYPGAVTVAWKADSSPVKAGVETTTPSKQSNNKYAASSYLSLTPEQWKSHRSYSCQVTHEGSTVEKTVAPTECS
B9: VH4-34+CDR3-IL8_CDR1 Cow_CDR2 Cow with light chain V1-51 (antibody, human IgG1, lambda)
heavy: not shown
light: B8 light
notes: also called BID 35

Experiments:
[1] = target: T1, CXCR1 (UniProt P25024 1-350, limits assumed); experiment: flow cytometry, IgG supernatant, fluorescent anti-human Fc; parental U2OS: 5
T1 construct: whole, on cells; also called CXCR1 receptor; CXCR1-U2OS
T1 sequence (looked up): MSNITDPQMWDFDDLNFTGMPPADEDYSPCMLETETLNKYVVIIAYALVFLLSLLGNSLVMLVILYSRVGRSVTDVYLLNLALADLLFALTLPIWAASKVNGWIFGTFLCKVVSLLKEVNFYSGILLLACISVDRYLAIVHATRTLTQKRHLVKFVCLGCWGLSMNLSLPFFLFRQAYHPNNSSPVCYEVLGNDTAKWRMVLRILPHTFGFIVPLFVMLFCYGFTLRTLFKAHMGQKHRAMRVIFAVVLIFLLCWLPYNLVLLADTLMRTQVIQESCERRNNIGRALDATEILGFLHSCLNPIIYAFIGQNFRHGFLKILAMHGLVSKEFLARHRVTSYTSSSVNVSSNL
Protocol: (§1) Briefly, a cell line expressing functionally validated CXCR1 derived from U2OS cells was obtained from DiscoveRx and cultured per manufacturer's instructions (Cat#93-0226C3, DiscoveRx Corporation, Freemont, Calif.). The parental cell line U2OS was obtained from ATCC and cultured under the same conditions as the CXCR1 cells. Cell culture supernatants were then tested for binding to cells by flow cytometry. The adherent U2OS or CXCR1-U2OS cells were dissociated with Accutase (Innovative Cell Technologies, Inc., San Diego, Calif.), neutralized with an equal volume of media containing 10% serum, centrifuged at 1000 g, and resuspended in PBS with 2% BSA. Next, cells were dispensed into microtiter plates to achieve between 30,000 to 300,000 cells per well, centrifuged again, and resuspended in cell culture supernatant containing expressed IgG, or a dilution of IgG-containing cell culture supernatant. A fluorescent-conjugated anti-Human Fc antibody was used to detect binding of the expressed antibody to cells.

[2] = target: T1, CXCR1; experiment: flow cytometry; fluorescence on CXCR1-U2OS over parental U2OS cells
Protocol: as §1

[3] = target: T1, CXCR1; experiment: as above; remark: listed apart in the source
Protocol: as §1

[4] = target: T1, CXCR1; experiment: flow cytometry; secreted IgG, CXCR1-U2OS over parental U2OS cells
[5] = target: T1, CXCR1; experiment: flow cytometry, IgG 10 nM, 2% BSA in PBS plus 2 ug/ml heparin sulfate
Protocol: Transfections and ELISA were carried out as described above, and flow cytometry was used to evaluate CXCR1 binding specificity as previously described, with the modification that cells were resuspended in 2% BSA in PBS plus 2 ug/ml Heparin sulfate, and IgGs were normalized to 10 nM during incubation on cells.

[6] = target: T1, CXCR1; experiment: flow cytometry; CXCR1-U2OS over parental U2OS cells

| Binder | fluorescence on CXCR1-U2OS cells [1] | Ratio of CXCR1/Parental [2] | FACS CXCR1/Parental Ratio [3] | further results |
| --- | --- | --- | --- | --- |
| B1 | 9 | 1.9 | 1.9 |  |
| B2 | 23 | 4.3 |  |  |
| B3 | 6 | 1.1 |  |  |
| B4 |  | 9.3 | 9.3 |  |
| B5 |  |  | 8 |  |
| B6 |  |  | 4 |  |
| B7 |  |  |  | FACS CXCR1/Parental Ratio [4]: 5 |
| B8 |  |  |  | CXCR1 specificity (CXCR1/parental ratio) [5]: 7.2; CXCR1/Parental Ratio [6]: 2.4 |
| B9 |  |  |  | CXCR1 specificity (CXCR1/parental ratio) [5]: 11.1; CXCR1/Parental Ratio [6]: 3.1 |
